From PMC7748142, “ATM inhibition enhances Auranofin-induced oxidative stress and cell death in lung cell lines” (PLoS ONE, 2020)

Target: the molecule itself
Assay: non-reducing SDS-PAGE with Western blot; A549 or MLF cells treated with Auranofin (A549: 10 uM, MLF: 2 uM) alone or with KU55933 (10 uM, 1 h pre-treatment); lysed in CHAPS buffer with 100 mM NEM; boiled in non-reducing sample buffer; disulfide-linked dimers

B1: peroxiredoxin 3 (PRDX3), A549 cells (enzyme, human (endogenous in A549), UniProt P30048 62-256, looked up)
chain: APAVTQHAPYFKGTAVVNGEFKDLSLDDFKGKYLVLFFYPLDFTFVCPTEIVAFSDKANEFHDVNCEVVAVSVDSHFSHLAWINTPRKNGGLGHMNIALLSDLTKQISRDYGVLLEGSGLALRGLFIIDPNGVIKHLSVNDLPVGRSVEETLRLVKAFQYVETHGEVCPANWTPDSPTIKPSPAASKEYFQKVNQ
notes: peroxiredoxin 3, endogenous in A549 cells, detected by anti-PRDX3 blot; source: endogenous, A549 lysate
  stoichiometry N: 2

B2: peroxiredoxin 3 (PRDX3), murine lung fibroblasts (enzyme, mouse (endogenous in MLFs), UniProt P20108 63-257, looked up)
chain: TPAVTQHAPYFKGTAVVNGEFKELSLDDFKGKYLVLFFYPLDFTFVCPTEIVAFSDKANEFHDVNCEVVAVSVDSHFSHLAWINTPRKNGGLGHMNITLLSDITKQISRDYGVLLESAGIALRGLFIIDPNGVVKHLSVNDLPVGRSVEETLRLVKAFQFVETHGEVCPANWTPESPTIKPSPTASKEYFEKVHQ
notes: peroxiredoxin 3, endogenous in murine lung fibroblasts, detected by anti-PRDX3 blot; source: endogenous, murine lung fibroblast (MLF) lysate
  stoichiometry N: 2

B3: peroxiredoxin 1 (PRDX1) (enzyme, human (endogenous in HEK 293T and A549), UniProt Q06830 1-199, looked up)
chain: MSSGNAKIGHPAPNFKATAVMPDGQFKDISLSDYKGKYVVFFFYPLDFTFVCPTEIIAFSDRAEEFKKLNCQVIGASVDSHFCHLAWVNTPKKQGGLGPMNIPLVSDPKRTIAQDYGVLKADEGISFRGLFIIDDKGILRQITVNDLPVGRSVDETLRLVQAFQFTDKHGEVCPAGWKPGSDTIKPDVQKSKEYFSKQK
notes: peroxiredoxin 1, endogenous in human cell lines, detected by anti-PRDX1 blot; source: endogenous, HEK 293T lysate (trapping); endogenous, A549 lysate (dimer analysis)
  stoichiometry N: 2
